Source: patent US20240132615A1

Legend:
[1] = biological target: human CD38 on multiple myeloma cells (human) (UniProt P28907); experiment: flow cytometry on NCI-H929 BCMA KO cells (BCMA-negative, CD38-positive)
[2] = biological target: soluble BCMA (UniProt Q02223); experiment: cell-based or functional assay
Sequence of soluble BCMA (Q02223 1-54 limits assumed): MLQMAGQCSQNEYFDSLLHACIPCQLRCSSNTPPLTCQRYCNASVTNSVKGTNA

| Maximum binding (RFI) [1] [RFI] | Substance | Fold difference to no soluble factor condition (EC50 from % Cytotoxicity), sBCMA [2] [fold] | Fold difference to no soluble factor condition (EC50 from % Killing to No Ab), sBCMA [2] [fold] |
| --- | --- | --- | --- |
| 101 | alnuctamab (bispecific antibody) | 380 | 367 |
| 104 | teclistamab (bispecific antibody) | 75 | 30 |
